Assay results: patent US20140274782A1 (Stanford University, published 2014)

Tests used:
Assay in all cases: ProtoArray, GST-treated control array;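 further: human protein microarray (about 9500 recombinant proteins) incubated overnight with GST alone plus SAM cofactor as the negative control for G9a SET domain methylation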
[1] = target: T1, C12orf60-Uncharacterized protein C12orf60 (human, UniProt Q5U649 1-245)
T1 sequence (looked up): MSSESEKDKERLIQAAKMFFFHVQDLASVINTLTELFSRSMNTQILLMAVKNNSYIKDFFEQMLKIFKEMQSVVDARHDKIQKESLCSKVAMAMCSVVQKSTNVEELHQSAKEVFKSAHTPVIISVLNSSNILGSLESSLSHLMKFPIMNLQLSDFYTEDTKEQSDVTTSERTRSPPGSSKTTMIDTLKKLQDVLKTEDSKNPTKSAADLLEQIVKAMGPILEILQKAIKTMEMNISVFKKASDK

[2] = target: T2, MGC10433-RNA-binding protein 42 (human, UniProt Q9BTD8 1-480, limits assumed)
T2 sequence (looked up): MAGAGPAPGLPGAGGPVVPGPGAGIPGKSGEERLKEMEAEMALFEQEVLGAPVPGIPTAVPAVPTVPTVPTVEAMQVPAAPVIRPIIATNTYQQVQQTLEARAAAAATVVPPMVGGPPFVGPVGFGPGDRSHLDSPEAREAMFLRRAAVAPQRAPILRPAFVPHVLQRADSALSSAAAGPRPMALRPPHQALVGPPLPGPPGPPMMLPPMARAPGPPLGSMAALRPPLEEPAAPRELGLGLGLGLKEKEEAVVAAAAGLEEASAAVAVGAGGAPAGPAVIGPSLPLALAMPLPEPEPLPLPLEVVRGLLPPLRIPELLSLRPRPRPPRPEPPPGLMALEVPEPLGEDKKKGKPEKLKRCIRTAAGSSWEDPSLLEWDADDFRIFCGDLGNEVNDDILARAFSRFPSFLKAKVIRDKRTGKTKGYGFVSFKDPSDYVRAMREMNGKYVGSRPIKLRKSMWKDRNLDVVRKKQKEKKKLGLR

[3] = target: T3, CAB39L-Calcium-binding protein 39-like (human, UniProt Q9H9S4 1-337)
T3 sequence (looked up): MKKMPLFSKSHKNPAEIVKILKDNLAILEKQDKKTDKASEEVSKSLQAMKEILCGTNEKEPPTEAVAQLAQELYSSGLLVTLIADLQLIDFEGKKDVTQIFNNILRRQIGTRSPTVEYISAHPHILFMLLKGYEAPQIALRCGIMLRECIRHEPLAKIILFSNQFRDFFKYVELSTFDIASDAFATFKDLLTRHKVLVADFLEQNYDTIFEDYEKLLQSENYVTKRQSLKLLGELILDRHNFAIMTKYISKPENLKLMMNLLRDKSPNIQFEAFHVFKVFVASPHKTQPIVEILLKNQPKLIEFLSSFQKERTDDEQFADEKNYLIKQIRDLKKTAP

[4] = target: T4, C11orf73-chromosome 11 open reading frame 73 (C11orf73) (human, UniProt Q53FT3 1-197)
T4 sequence (looked up): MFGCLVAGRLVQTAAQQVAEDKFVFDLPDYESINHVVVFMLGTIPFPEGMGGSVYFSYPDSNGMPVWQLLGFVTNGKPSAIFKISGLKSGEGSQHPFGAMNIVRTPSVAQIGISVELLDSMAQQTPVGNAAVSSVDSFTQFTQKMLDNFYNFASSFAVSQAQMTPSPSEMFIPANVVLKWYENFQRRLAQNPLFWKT

[5] = target: T5, SMYD5-SMYD family member 5 (SMYD5) (human, UniProt Q6GMV2 1-418)
T5 sequence (looked up): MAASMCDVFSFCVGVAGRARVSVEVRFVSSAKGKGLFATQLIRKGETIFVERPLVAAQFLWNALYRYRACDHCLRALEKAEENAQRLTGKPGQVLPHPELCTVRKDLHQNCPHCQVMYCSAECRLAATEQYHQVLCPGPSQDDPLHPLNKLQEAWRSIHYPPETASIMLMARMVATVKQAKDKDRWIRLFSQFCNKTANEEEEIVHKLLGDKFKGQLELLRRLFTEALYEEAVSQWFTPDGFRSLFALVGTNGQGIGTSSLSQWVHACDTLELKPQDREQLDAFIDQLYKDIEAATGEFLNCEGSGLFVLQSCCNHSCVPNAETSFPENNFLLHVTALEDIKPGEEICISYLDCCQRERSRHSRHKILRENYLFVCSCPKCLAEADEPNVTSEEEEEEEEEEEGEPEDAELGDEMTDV

[6] = target: T6, RDH11-retinol dehydrogenase 11 (all-trans/9-cis/11-cis) (RDH11) (human, UniProt Q8TC12 1-318, limits assumed)
T6 sequence (looked up): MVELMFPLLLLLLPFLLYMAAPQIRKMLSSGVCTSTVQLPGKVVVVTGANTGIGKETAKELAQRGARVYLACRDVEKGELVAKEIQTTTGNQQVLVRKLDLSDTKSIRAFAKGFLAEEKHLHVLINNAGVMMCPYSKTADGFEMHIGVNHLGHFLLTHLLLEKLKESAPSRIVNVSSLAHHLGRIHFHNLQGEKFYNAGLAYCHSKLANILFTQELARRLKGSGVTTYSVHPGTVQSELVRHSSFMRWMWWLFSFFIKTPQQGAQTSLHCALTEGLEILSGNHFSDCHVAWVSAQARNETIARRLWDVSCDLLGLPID

[7] = target: T7, KIFC1-kinesin family member C1 (KIFC1) (human, UniProt Q9BW19 1-673)
T7 sequence (looked up): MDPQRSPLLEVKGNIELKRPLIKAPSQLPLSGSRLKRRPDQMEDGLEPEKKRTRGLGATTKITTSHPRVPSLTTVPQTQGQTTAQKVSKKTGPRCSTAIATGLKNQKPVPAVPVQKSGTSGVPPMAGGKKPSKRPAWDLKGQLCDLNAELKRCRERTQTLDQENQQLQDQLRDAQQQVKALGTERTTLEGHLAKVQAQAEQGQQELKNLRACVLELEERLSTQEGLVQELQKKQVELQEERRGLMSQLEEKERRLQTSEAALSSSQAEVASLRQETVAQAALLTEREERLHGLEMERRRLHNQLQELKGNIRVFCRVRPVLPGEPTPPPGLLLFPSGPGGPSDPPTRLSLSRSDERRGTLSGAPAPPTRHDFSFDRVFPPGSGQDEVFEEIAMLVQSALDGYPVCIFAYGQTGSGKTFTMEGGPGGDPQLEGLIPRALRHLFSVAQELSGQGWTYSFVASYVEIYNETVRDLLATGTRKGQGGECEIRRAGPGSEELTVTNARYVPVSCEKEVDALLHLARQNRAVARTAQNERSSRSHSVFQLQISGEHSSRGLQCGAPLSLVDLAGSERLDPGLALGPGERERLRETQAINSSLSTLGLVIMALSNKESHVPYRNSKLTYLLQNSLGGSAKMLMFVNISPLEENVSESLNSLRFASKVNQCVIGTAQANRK

- GST Average SNR [1]: -0.007
- GST Average SNR [2]: -0.357
- GST Average SNR [3]: 0.182
- GST Average SNR [4]: -1.4
- GST Average SNR [5]: 1.16
- GST Average SNR [6]: 0.0685
- GST Average SNR [7]: 0.745
B1: 3× Flag-3×MBT (designed binder)
chain: EEWSSSQPATGEKKECWSWESYLEEQKAITAPVSLFQDSQAVTHNKNGFKLGMKLEGIDPQHPSMYFILTVAEVCGYRLRLHFDGYSECHDFWVNANSPDIHPAGWFEKTGHKLQPPKGYKEEEFSWSQYLRSTRAQAAPKHLFVSQSHSPPPLGFQVGMKLEAVDRMNPSLVCVASVTDVVDSRFLVHFDNWDDTYDYWCDPSSPYIHPVGWCQKQGKPLTPPQDYPDPDNFCWEKYLEETGASAVPTWAFKVRPPHSFLVNMKLEAVDRRNPALIRVASVEDVEDHRIKIHFDGWSHGYDFWIDADHPDIHPAGWCSKTGHPLQPPLGPREPSSASPGG
notes: also called Flag-tagged 3×MBT; 3xFlag-3xMBT; not shown: made by PreScission cleavage of GST-3× Flag-3×MBT
